Laboratory results taken from paper PMC3154745 (Chembiochem : a European journal of chemical biology, 2011).
Numbering of substitutions follows the chain as printed. In names and notes the source's numbering stands.

B1: W200A: HP1a-CSD point mutant W200A (protein)
chain: EQDTIPVSGSTGFDRGLEAEKILGASDNNGRLTFLIQFKGVDQAEMVPSSVANEKIPRMVIHFYEERLSAYSDNED
modifications: left off: His6 (…), N-terminal, kept | two lysines for solubility, C-terminal, kept
B2: S199ES202E: HP1a-CSD phosphorylation mimic, S199E and S202E double mutant (protein)
chain: B1 chain with S69E, A70W, S72E
modifications: left off: His6 (…), N-terminal, kept | two lysines for solubility, C-terminal, kept

Test system: HP1a (homodimerization)
Assay: Equilibrium analytical ultracentrifugation, HP1a self-association
Settings: equilibrium AUC

Molecule | weakening of the dimerization (dissociation) constant relative to wild-type CSD
B1 | two-fold weakening
B2 | 6 fold
